Results as given in the supplement of paper PMC9112550, “Optimization of the antimicrobial peptide Bac7 by deep mutational scanning” (BMC Biology, 2022).

system: Escherichia coli TOP10; experiment: shrunken log2 fold change of peptide-encoding DNA abundance (4.5 h post-induction vs induction); higher = less antimicrobial activity (less host growth inhibition); conditions: time post-induction: 4.5 h; library: site-saturation at positions 5, 18, 19, 20
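Also: peptides expressed intracellularly from a pBAD plasmid library in pooled LB shake-flask culture, induced with 0.3% L-arabinose, DNA abundance read by NGS, three biological replicates, DESeq2 with apeglm shrinkage.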

Sequence	shrunken log2 fold change
RRIRYRPPRLPRPRPRPWTCPRP	-0.362
RRIRKRPPRLPRPRPRPFPCPRP	0.0314
RRIRNRPPRLPRPRPRPTNDPRP	0.0554
RRIRHRPPRLPRPRPRPCWDPRP	0.0881
RRIRSRPPRLPRPRPRPQTSPRP	-0.157
RRIRFRPPRLPRPRPRPYADPRP	-0.0222
RRIRPRPPRLPRPRPRPFYIPRP	-0.312
RRIRCRPPRLPRPRPRPFWSPRP	-0.331
RRIRNRPPRLPRPRPRPSVIPRP	-0.781
RRIRYRPPRLPRPRPRPSPLPRP	-0.55
RRIRVRPPRLPRPRPRPLLLPRP	-0.52
RRIRRRPPRLPRPRPRPYRQPRP	-0.13
RRIRCRPPRLPRPRPRPHGNPRP	-0.233
RRIRRRPPRLPRPRPRPGQGPRP	0.278
RRIRIRPPRLPRPRPRPMKQPRP	-0.0367
RRIRWRPPRLPRPRPRPKMLPRP	0.149
RRIRNRPPRLPRPRPRPKCKPRP	-0.261
RRIRIRPPRLPRPRPRPWKEPRP	-0.12
RRIRARPPRLPRPRPRPVLKPRP	0.22
RRIRFRPPRLPRPRPRPEHPPRP	-0.0569
RRIRIRPPRLPRPRPRPAHHPRP	-0.176
RRIRCRPPRLPRPRPRPNYCPRP	-0.3
RRIRVRPPRLPRPRPRPDLCPRP	0.0475
RRIRRRPPRLPRPRPRPTIVPRP	-0.111
RRIRPRPPRLPRPRPRPNRFPRP	-0.0502

Sequence	shrunken log2 fold change
RRIRFRPPRLPRPRPRPITRPRP	0.114
RRIRYRPPRLPRPRPRPTWTPRP	0.0315
RRIRIRPPRLPRPRPRPRQSPRP	0.065
RRIRKRPPRLPRPRPRPNGMPRP	0.0655
RRIRHRPPRLPRPRPRPQNRPRP	-0.0146
RRIRVRPPRLPRPRPRPEDRPRP	0.0837
RRIRERPPRLPRPRPRPSGKPRP	-0.119
RRIRNRPPRLPRPRPRPVANPRP	-0.0653
RRIRDRPPRLPRPRPRPTHRPRP	0.0815
RRIRYRPPRLPRPRPRPATGPRP	0.337
RRIRHRPPRLPRPRPRPCCCPRP	-0.421
RRIRSRPPRLPRPRPRPAYGPRP	-0.122
RRIRERPPRLPRPRPRPNNPPRP	-0.736
RRIRDRPPRLPRPRPRPTPTPRP	0.194
RRIRNRPPRLPRPRPRPNNGPRP	-0.0309
RRIRPRPPRLPRPRPRPFPRPRP	0.0474
RRIRMRPPRLPRPRPRPKCNPRP	0.159
RRIRERPPRLPRPRPRPYGTPRP	-0.0949
RRIRVRPPRLPRPRPRPWQWPRP	-0.0592
RRIRWRPPRLPRPRPRPYLIPRP	-0.38
RRIRMRPPRLPRPRPRPPEFPRP	1.05
RRIRNRPPRLPRPRPRPCVVPRP	-0.0224
RRIRARPPRLPRPRPRPKQFPRP	0.3
RRIRARPPRLPRPRPRPHFGPRP	0.0349
RRIRTRPPRLPRPRPRPMQKPRP	-0.00906

Sequence	shrunken log2 fold change
RRIRMRPPRLPRPRPRPQLGPRP	-0.0543
RRIRFRPPRLPRPRPRPISWPRP	-0.132
RRIRMRPPRLPRPRPRPCDWPRP	0.179
RRIRIRPPRLPRPRPRPYCHPRP	-0.743
RRIRGRPPRLPRPRPRPIMFPRP	0.382
RRIRNRPPRLPRPRPRPYNEPRP	-0.11
RRIRNRPPRLPRPRPRPVVCPRP	-0.06
RRIRTRPPRLPRPRPRPWDSPRP	-0.00804
RRIRKRPPRLPRPRPRPAFDPRP	0.451
RRIRFRPPRLPRPRPRPEHVPRP	-0.0205
RRIRRRPPRLPRPRPRPINVPRP	-0.326
RRIRMRPPRLPRPRPRPGWMPRP	0.622
RRIRQRPPRLPRPRPRPNIQPRP	-0.228
RRIRDRPPRLPRPRPRPHKIPRP	-0.524
RRIRMRPPRLPRPRPRPIEYPRP	0.048
RRIRPRPPRLPRPRPRPQWSPRP	-0.226
RRIRMRPPRLPRPRPRPCRAPRP	0.496
RRIRCRPPRLPRPRPRPIKVPRP	-0.000403
RRIRTRPPRLPRPRPRPGQDPRP	-0.102
RRIRPRPPRLPRPRPRPVQIPRP	-0.13
RRIRKRPPRLPRPRPRPSRAPRP	0.521
RRIRDRPPRLPRPRPRPRQAPRP	0.102
RRIRLRPPRLPRPRPRPMIPPRP	-0.0974
RRIRKRPPRLPRPRPRPFNYPRP	-0.463
RRIRYRPPRLPRPRPRPDCLPRP	-0.209
